Source: EP4707300A1 (Beijing Wisdomab Biotechnology Co., Ltd, dated 2026)

T1: cynomolgus monkey IL-15 (mfIL-15+mfIL-15Rα complex), tag on IL-15Rα not stated (cynomolgus monkey (Macaca fascicularis), UniProt P40221 49-162; Q13261 31-128)
T1 construct: also called monkey IL-15+IL-15Rα superagonist
T1 chain 1: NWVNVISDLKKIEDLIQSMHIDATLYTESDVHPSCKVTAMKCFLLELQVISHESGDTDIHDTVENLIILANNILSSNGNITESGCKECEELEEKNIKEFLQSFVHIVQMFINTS
T1 chain 2: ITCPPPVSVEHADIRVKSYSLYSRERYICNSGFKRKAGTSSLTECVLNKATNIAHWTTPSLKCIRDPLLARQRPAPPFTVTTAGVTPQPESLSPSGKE


What was measured:
[1] = target: human IL-15 (hIL-15+hIL-15Rα complex), tag on IL-15Rα not stated (human (homo sapiens)) (UniProt P40933); assay: cell-based or functional assay
[2] = target: human IL-15 (hIL-15+hIL-15Rα-His complex) (human (homo sapiens)) (UniProt P40933); assay: cell-based or functional assay
[3] = target: cynomolgus monkey IL-15 (mfIL-15+mfIL-15Rα complex), tag on IL-15Rα not stated (cynomolgus monkey (Macaca fascicularis)) (UniProt P40221); assay: SPR (Biacore T200), as in Example 2.2
[4] = target: human IL-15 (hIL-15+hIL-15Rα complex), tag on IL-15Rα not stated (human (homo sapiens)) (UniProt P40933); assay: SPR (Biacore T200), as in Example 2.2
[5] = target: human IL-15 (hIL-15+hIL-15Rα complex), tag on IL-15Rα not stated (human (homo sapiens)) (UniProt P40933); assay: SPR (Biacore T200), as in Example 2.2; remark: listed apart in the source
[6] = target: human IL-15 (hIL-15+hIL-15Rα complex), tag on IL-15Rα not stated (human (homo sapiens)) (UniProt P40933); assay: SPR (Biacore T200), antibody captured by anti-human IgG Fc, complex as analyte, 1:1 model
[7] = target: T2, human IL-15 (hIL-15+hIL-15Rα complex), tag on IL-15Rα not stated (human (homo sapiens), UniProt P40933 49-162; Q13261 31-128); assay: cell-based or functional assay
[8] = target: human IL-15 (hIL-15+hIL-15Rα-His complex) (human (homo sapiens), UniProt P40933 49-162; Q13261 31-128); assay: cell-based or functional assay
Sequence of human IL-15 (hIL-15+hIL-15Rα-His complex) (P40933 49-162 limits assumed, chain 1 of 2): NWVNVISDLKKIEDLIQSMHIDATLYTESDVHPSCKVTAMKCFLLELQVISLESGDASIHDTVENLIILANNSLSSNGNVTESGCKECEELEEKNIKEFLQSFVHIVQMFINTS
Sequence of human IL-15 (hIL-15+hIL-15Rα-His complex) (Q13261 other isoform, or with tags, fused parts or gaps limits assumed, chain 2 of 2): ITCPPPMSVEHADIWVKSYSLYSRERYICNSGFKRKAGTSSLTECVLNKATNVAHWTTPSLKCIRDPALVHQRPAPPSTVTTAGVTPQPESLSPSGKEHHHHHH

[9] = target: T2, human IL-15 (hIL-15+hIL-15Rα complex), …; assay: SPR (Biacore T200), as in Example 2.2
[10] = target: T2, human IL-15 (hIL-15+hIL-15Rα complex), …; assay: SPR (Biacore T200), as in Example 2.2; remark: listed apart in the source
[11] = target: T1, cynomolgus monkey IL-15 …; assay: SPR (Biacore T200), as in Example 2.2
[12] = target: T3, mouse IL-15 (mIL-15+mIL-15Rα-mFc1 complex) (mouse (Mus musculus), UniProt P48346 49-162); assay: ELISA, complex coated at 1 µg/mL, anti-human IgG-HRP detection
T3 construct: also called mIL-15+mIL-15Rα-mFe1 complex
T3 sequence (P48346 49-162 limits assumed, chain 1 of 2): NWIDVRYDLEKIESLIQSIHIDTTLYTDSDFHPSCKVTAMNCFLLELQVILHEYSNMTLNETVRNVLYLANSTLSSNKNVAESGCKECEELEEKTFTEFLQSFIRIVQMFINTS
T3 sequence (chain, as listed by the source limits assumed, chain 2 of 2): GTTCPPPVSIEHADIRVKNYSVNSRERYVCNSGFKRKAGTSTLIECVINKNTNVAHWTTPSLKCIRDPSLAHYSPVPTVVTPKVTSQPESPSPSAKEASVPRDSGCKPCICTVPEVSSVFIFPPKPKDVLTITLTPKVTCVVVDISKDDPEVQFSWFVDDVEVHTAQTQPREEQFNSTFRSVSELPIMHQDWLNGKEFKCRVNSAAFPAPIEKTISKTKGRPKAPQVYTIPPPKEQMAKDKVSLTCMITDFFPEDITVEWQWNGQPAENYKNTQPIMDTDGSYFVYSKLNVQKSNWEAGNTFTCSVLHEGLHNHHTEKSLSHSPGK

[13] = target: T2, human IL-15 (hIL-15+hIL-15Rα complex), …; assay: SPR (Biacore T200), antibody captured by anti-human IgG Fc, complex as analyte, 1:1 model
[14] = target: T2, human IL-15 (hIL-15+hIL-15Rα complex), …; assay: SPR (Biacore T200), as in Example 2.2; remark: listed apart in the source
[15] = target: T2, human IL-15 (hIL-15+hIL-15Rα complex), …; assay: SPR (Biacore T200), as in Example 2.2; remark: listed apart in the source
[16] = target: cynomolgus monkey IL-15 (mfIL-15+mfIL-15Rα-His complex) (cynomolgus monkey (Macaca fascicularis), UniProt P40221 49-162 (Chlorocebus aethiops entry)); assay: ELISA, complex coated at 1 µg/mL, anti-human IgG-HRP detection

Sequence of anti-human IL-15 monoclonal antibody CALY-002 (heavy): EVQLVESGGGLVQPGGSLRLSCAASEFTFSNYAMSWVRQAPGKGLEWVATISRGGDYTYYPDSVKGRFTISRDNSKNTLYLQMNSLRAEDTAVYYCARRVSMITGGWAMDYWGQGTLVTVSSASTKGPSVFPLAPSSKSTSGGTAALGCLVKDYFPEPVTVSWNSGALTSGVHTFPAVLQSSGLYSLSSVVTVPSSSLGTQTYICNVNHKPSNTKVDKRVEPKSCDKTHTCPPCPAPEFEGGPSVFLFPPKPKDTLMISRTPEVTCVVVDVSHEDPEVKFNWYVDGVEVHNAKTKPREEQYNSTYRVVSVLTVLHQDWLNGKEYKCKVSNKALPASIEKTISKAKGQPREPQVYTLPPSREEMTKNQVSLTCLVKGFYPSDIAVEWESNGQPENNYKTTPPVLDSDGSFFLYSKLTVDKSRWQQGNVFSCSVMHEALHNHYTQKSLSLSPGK
Sequence of anti-human IL-15 monoclonal antibody CALY-002 (light, part): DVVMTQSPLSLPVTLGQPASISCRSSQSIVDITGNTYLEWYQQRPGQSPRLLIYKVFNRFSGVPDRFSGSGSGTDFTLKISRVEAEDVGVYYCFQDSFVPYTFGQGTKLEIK

Row | Molecule | IC50(nM), inhibition of IL-15-induced SEAP secretion by HEK-Blue IL-2 cells [7] [nM] | IC50(nM), inhibition of IL-15-driven proliferation of NK92 cells (Cell Titer-Glo) [8] [nM] | Kd [9] [nM] | koff [9] [s⁻¹] | kon [9] [M⁻¹ s⁻¹] | Kd [10] [nM] | koff [10] [s⁻¹] | kon [10] [M⁻¹ s⁻¹] | Kd [11] [nM] | koff [11] [s⁻¹] | kon [11] [M⁻¹ s⁻¹] | binding result [12] | binding result [16] | also measured
1 | anti-human IL-15 monoclonal antibody CALY-002 | – | – | – | – | – | – | – | – | – | – | – | – | – | IC50(nM), inhibition of IL-15-induced SEAP secretion by HEK-Blue IL-2 cells [1]: 3.23 nM; IC50(nM), inhibition of IL-15-driven proliferation of NK92 cells (Cell Titer-Glo) [2]: 0.106 nM; Kd [3]: 0.148 nM; koff [3]: 0.000188 s⁻¹; kon [3]: 1.27e+06 M⁻¹ s⁻¹; Kd [4]: 0.201 nM; koff [4]: 0.000207 s⁻¹; kon [4]: 1.03e+06 M⁻¹ s⁻¹; Kd [5]: 0.337 nM; koff [5]: 0.000235 s⁻¹; kon [5]: 697000 M⁻¹ s⁻¹; Kd [6]: 0.239 nM; koff [6]: 0.000319 s⁻¹; kon [6]: 1.34e+06 M⁻¹ s⁻¹
2 | anti-human IL-15 monoclonal antibody R1A3 (antibody, V domains shown, Found from a fully human Fab phage library) VH: EVQLVQSGAEVKKPGESLKISCKVSGYFFTTYWIGWVRQMPGKGLEYMGIIYPGDSDTRYSPSFQGQVTISADKSISTAYLQWSSLKASDTAMYYCARGGHWNAFDFWGQGTLVTVSS VL: EIVLTQSPGTLSLSPGERATLSCRASQSVSSSYLAWYQQKPGQAPRLLIYGASRRATGIPDRFSGSGSGTDFTLTISRLEPEDFAVYYCQQFDASQTFGQGTKLEISR | 0.634 | 0.126 | 0.352 | 0.000548 | 1.56e+06 | 0.612 | 0.00038 | 621000 | 0.722 | 0.000398 | 552000 | no binding | – | Kd [13]: 0.381 nM; koff [13]: 0.000537 s⁻¹; kon [13]: 1.41e+06 M⁻¹ s⁻¹
3 | anti-human IL-15 monoclonal antibody AMG714 (antibody, V domains shown) VH: EVQLVQSGAEVKKPGESLKISCKVSGYFFTTYWIGWVRQMPGKGLEYMGIIYPGDSDTRYSPSFQGQVTISADKSISTAYLQWSSLKASDTAMYYCARGGNWNCFDYWGQGTLVTVSS VL: EIVLTQSPGTLSLSPGERATLSCRASQSVSSSYLAWYQQKPGQAPRLLIYGASRRATGIPDRFSGSGSGTDFTLTISRLEPEDFAVYYCQRYGSSHTFGQGTKLEISR | – | – | – | – | – | – | – | – | 2.12 | 0.00124 | 583000 | – | – | –
4 | mouse anti-human IL-15 monoclonal antibody R6E11 (antibody, V domains shown, Mouse variable regions from a mouse immune phage library) VH: EVKLKESGPSLVQPSQSLSITCTVSGFSLTTYAVHWVRQSPGKGLEWLGVIWGAGSTDYNAAFMSRLSITKDNSKSQVFFKMNSLQADDTAIYFCAKNGAYYVMDYWGQGTSVTVSS VL: EIVLTQSPAIMSASPGEKVTITCSASSSVSYMHWFQQRPGTSPKLWIYSTSNLASGVPARFSGSGSGTSYSLTISRMEAEDAATYYCQQRSSYPLTFGAGTKLEIK | – | – | – | – | – | – | – | – | – | – | – | – | – | Kd [14]: 0.689 nM; koff [14]: 0.000267 s⁻¹; kon [14]: 387000 M⁻¹ s⁻¹; Kd [15]: 0.983 nM; koff [15]: 0.000399 s⁻¹; kon [15]: 406000 M⁻¹ s⁻¹
5 | anti-human IL-15 monoclonal antibody R26H10 (antibody, V domains shown, Humanized mutant of R6E11 with a fully human light chain; captured by anti-human IgG (Fc) in SPR and detected with anti-human IgG in ELISA) VH: QVTLKESGPVLVKPTETLTLTCTVSGFSLTTYAVHWIRQPPGKALEWLGVIWGAGSTDYNPSFMSRLTISKDTSKSQVVLTMTNMDPVDTATYYCAKNAAYYVMDYWGQGTTVTVSS VL: EIVLTQSPGTLSLSPGERATLSCRASQSVIYSYLAWYQQKPGQAPRLLIYAASKLASGIPDRFSGSGSGTDFTLTISRLEPEDFAVYYCQQRASYPLTFGQGTKVEIK | 0.646 | 0.133 | – | – | – | 1.13 | 0.000236 | 208000 | 99.9 | 0.021 | 210000 | no binding | binds | Kd [15]: 1.22 nM; koff [15]: 0.000308 s⁻¹; kon [15]: 252000 M⁻¹ s⁻¹
6 | anti-human IL-15 monoclonal antibody R4G4VH+R22F11VK (antibody, V domains shown, Mutant of R1A3; it was captured by anti-human IgG (Fc) in SPR and detected with anti-human IgG in ELISA, so a human Fc is implied; also called R4G4VH+R22FVK) VH: EVQLVQSGAEVKKPGESLKISCKVSGYFFTTYWIGWVRQMPGKGLEYMGIIYPGDSDTRYSPSFQGQVTISADKSISTAYLQWSSLKASDTAMYYCARGGHWNAFDIWGQGTLVTVSS VL: EIVLTQSPGTLSLSPGERATLSCRASQSVIGSYLAWYQQKPGQAPRLLIYSASKLASGIPDRFSGSGSGTDFTLTISRLEPEDFAVYYCQQHYSTPGTFGQGTKVEIK | 0.312 | 0.109 | 0.346 | 0.00029 | 838000 | 0.435 | 0.000196 | 450000 | 0.448 | 0.000172 | 384000 | no binding | binds | –
7 | anti-human IL-15 monoclonal antibody R2H2VH+R22F11VK (antibody, V domains shown, Mutant of R1A3; it was captured by anti-human IgG (Fc) in SPR and detected with anti-human IgG in ELISA, so a human Fc is implied; also called R2H2VH+R22FVK) VH: EVQLVQSGAEVKKPGESLKISCKVSGYFFTTYWIGWVRQMPGKGLEYMGIIYPGDSDTRYSPSFQGQVTISADKSISTAYLQWSSLKASDTAMYYCARGGHWNSFDTWGQGTLVTVSS VL: EIVLTQSPGTLSLSPGERATLSCRASQSVIGSYLAWYQQKPGQAPRLLIYSASKLASGIPDRFSGSGSGTDFTLTISRLEPEDFAVYYCQQHYSTPGTFGQGTKVEIK | 0.397 | 0.119 | 0.379 | 0.000299 | 791000 | 0.57 | 0.000204 | 357000 | 0.463 | 0.000171 | 365000 | no binding | binds | –
